In paper PMC10192352 (2023) one finds koff and Kd data, which are given here for 1 molecule.

Test [1] concerns the target T1, NPNA8 peptide, biotinylated (Plasmodium falciparum, biotin (position not given)).
T1 chain: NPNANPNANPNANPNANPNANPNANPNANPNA
In words: BLI; 2:1 binding model. In general terms: In BLI a coated tip is dipped into the sample, and binding shifts an interference pattern.

Test [2] addresses T1, NPNA8 peptide, biotinylated. In words: BLI; 2:1 binding model.

B1: L9 Fab (Fab, V domains shown)
VH: QVKLVESGGGVVQPGRSLRLSCEASGFIFSTYGMHWVRQAPGKGLEWVAVIWFDGSNIYYADSVKGRFTISRDNSKNTVFMQMDSLRAEDTAVYYCHRNFYDGSGPFDYWGQGTLVTVSS
VL: DIQMTQSPSTLSASVGDRVTITCRASQFISRWLAWYQQKPGKAPKLLIYKASSLESGVPSRFSGSGSETHFTLTISSLQPDDVATYYCQEYTSYGRTFGQGTKVEIK
The koff is a measure of how fast the partners let go of each other. The low end stands for slow dissociation, the high end for fast dissociation. A word on the Kd: it is a measure of binding affinity in units of concentration. As for B1, the koff in test [1] is 0.024 s⁻¹. The molecule also displayed a Kd in test [2] of 6.26 µM.
